Measurements: US7709606B2, “Interacting polypeptide comprising a heptapeptide pattern and a cellular penetration domain” (Ecole Normale Superieure de Lyon, priority 2003, dated 2010)

Columns and labels:
Jurkat cells = assay: intracellular entry, immunofluorescence in Jurkat cells; type: cell-based; conditions: 2 μM for one hour, analyzed 24 h later
Experimental: Light transmission and fluorescence images are shown for representative cells.
The immunofluorescence tests were carried out with a primary anti-FLAG antibody in a dilution of 1:500 incubated for 2 hours and a secondary antibody coupled to the Alexa Fluor 488 fluorophore (Molecular Probes) diluted 1:1000, incubated for one hour.
To confirm that SHPs do indeed enter the cell, immunofluorescence analyses were also carried out. Jurkat cells were incubated with 1 μM of SHP for 4 hours and after washing twice, the cells were cultured for 24 hours.

HIV-1-LA1 = assay: antiviral test in PHA-P activated PBMC, RT activity; type: cell-based; conditions: for Percentage inhibition, Mean: HIV-1 LA1, day 7
Experimental: (§1) These viruses were amplified in vitro with umbilical blood mononuclear cells (UBMC) activated with PHA-P. The cell-free supernatant was centrifuged at […] for 10 minutes to eliminate soluble factors, and the residue was re-suspended in cell culture medium. Virus stocks were titrated using PBMC cells activated with PHA-P and 50% tissue culture infectious doses (TCID50) were calculated using Kärber's formula.
PBMC cells were pre-treated for 30 minutes by 5 concentrations of each molecule and infected with 75 TCID50 of the HIV-1-LA1 strain. AZT (1.6, 8, 40, 200 and 1000 nM) and indinavir (1.6, 8, 40, 200 and 1000 nM) were used as the control. […] The molecules were maintained throughout culture, and the cellular supernatant was harvested 7 days post infection and stored at −20° C. to measure viral replication by reverse transcriptase activity (RT) assay.
(§2) HIV replication was analyzed by assaying the RT activity in the supernatants from cell cultures using the RetroSys RT kit (Innovagen). The experiments were carried out 3 times and the results are expressed as the mean of the RT activity±the standard deviation (SD).
In a last step, it was examined whether SHPs were actually capable of inhibiting HIV-1 replication. This was carried out in PBMCs activated by PHA-P and in MDMs. […] The effects of different SHPs was thus tested at this time. AZT and indinavir were used as controls.

HIV-1/Ba-L = assay: antiviral test in monocyte-derived macrophages (MDM), RT activity; type: cell-based; conditions: for Percentage inhibition, Mean: MDMs, HIV-1/Ba-L
Experimental: as §1
The MDM cells were pre-treated for 30 minutes in 6 concentrations of different molecules and infected with 30000 TCID50 of the HIV-1/Ba-L strain. AZT (0.8, 4, 20, 100 and 500 nM) and indinavir (0.8, 4, 20, 100 and 500 nM) were used as the control. […] The molecules were maintained for 7 days post infection, and the cellular supernatant was harvested 7, 14 and 21 days post infection and stored at −20° C. to measure viral replication by reverse transcriptase activity (RT) assay.
as §2

LexNES (NES of Rev) = LexNES (NES of Rev) (Human immunodeficiency virus type 1 group M subtype B, UniProt P04618); conditions: in words; method not stated
LexNES (NES of Rev), sequence (P04618 70-96): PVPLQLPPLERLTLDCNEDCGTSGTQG

Rev = Rev (Human immunodeficiency virus type 1 group M subtype B, UniProt P04618); conditions: HeLa cells
Experimental: This type of indicative construct allowed an evaluation of the effect of Rev, which by causing transport towards the cytoplasm of the non spliced RNA, allowed expression of the CAT enzyme.
The CAT activity was measured using the CAT ELISA kit (Roche).
The SHPR activity was evaluated using the reporter construct pDM128 which included the coding sequence CAT and an RRE motif in an intron. Expression of Rev stimulated expression of CAT allowing an unspliced messenger to be exported to the cytoplasm.
These various mutants were tested using a transitory expression system consisting of transfecting HeLa cells of the reporter plasmid having the CAT sequence associated with the RRE in the intronic position with expression vectors for the Rev protein and the SHPR protein. […] The separation between the two values was less than 20%.
These vectors were transfected with the reporter plasmid pDM128 and the expression vector Rev as described in the above sections (and in Roisin et al, JBC (2004) 279: 9208). The quantity of CAT protein is expressed as a % of that corresponding to transfection of parental SHPR. A value of more than 100 thus indicates a negative effect on the inhibiting power of SHPR and a lower value indicates an increase in this inhibiting property.

Rev/RRE association = Rev/RRE association (Human immunodeficiency virus type 1 group M subtype B, UniProt P04618); conditions: Rev produced in bacteria, RRE RNA probe
Experimental: To this end, gel retard experiments were carried out with a RNA molecule corresponding to the RRE element as the probe. The Rev protein produced in bacteria binds to this RNA and induces a non denaturing polyacrylamide gel migration retardation.

B1: SHPR-142: SUMO-1-heptapeptide-Tat PTD protein against Rev; heptapeptide Phe Trp Phe Cys Gly Leu Lys (SEQ ID NO: 2) (protein)
chain: MSDQEAKPSTEDLGDKKEGEYIKLKVIGQDSSEIHFKVKMTTHLKKLKESYCQRQGVPMNSLRFLFEGQRIADNHTPKELGMEEEDVIEVYQEQTARPPNPKKEIELGGGGSFWFCGLKPGRKKRRQRRRG
modifications: left off: small tags and cut ends
**Q.** What does the source list for B1?
**A.** immunofluorescence with antibody against FLAG (Jurkat cells): diffuse fluorescence; anti-HIV activity, replication of HIV-1-LA1 (HIV-1-LA1; PBMC activated by PHA-P, 7th day, in words): reduced replication; reduction of HIV-1 replication (HIV-1-LA1; PBMC activated with PHA-P, 2 μM): 73±6%; ED70 (HIV-1-LA1; PBMCs, HIV-1-LA1, 7th day): 2.1 µM; ED90 (HIV-1-LA1; PBMCs, HIV-1-LA1, 7th day): 4.6 µM; Percentage inhibition, Mean (HIV-1-LA1; PBMCs, Dose 31 (nM)): 0%; Percentage inhibition, Mean (HIV-1-LA1; PBMCs, Dose 62.5 (nM)): 0%; Percentage inhibition, Mean (HIV-1-LA1; PBMCs, Dose 125 (nM)): 0%; Percentage inhibition, Mean (HIV-1-LA1; PBMCs, Dose 250 (nM)): 0%; Percentage inhibition, Mean (HIV-1-LA1; PBMCs, Dose 500 (nM)): 19%; Percentage inhibition, Mean (HIV-1-LA1; PBMCs, Dose 1000 (nM)): 26%; Percentage inhibition, Mean (HIV-1-LA1; PBMCs, Dose 2000 (nM)): 73%; inhibition of HIV replication (HIV-1/Ba-L; MDM, 1 μM): not effect; inhibition of HIV replication (HIV-1/Ba-L; MDM, 2 μM on day 14): 44±10%; anti-HIV activity, HIV-1/Ba-L replication (HIV-1/Ba-L; MDM, in words): slight inhibition of HIV replication; Percentage inhibition, Mean (HIV-1/Ba-L; Day 7, dose 62.5 (nM)): 0%; Percentage inhibition, Mean (HIV-1/Ba-L; Day 7, dose 125 (nM)): 0%; Percentage inhibition, Mean (HIV-1/Ba-L; Day 7, dose 250 (nM)): 0%; Percentage inhibition, Mean (HIV-1/Ba-L; Day 7, dose 500 (nM)): 0%; Percentage inhibition, Mean (HIV-1/Ba-L; Day 7, dose 1000 (nM)): 3%; Percentage inhibition, Mean (HIV-1/Ba-L; Day 7, dose 2000 (nM)): 35%; Percentage inhibition, Mean (HIV-1/Ba-L; Day 14, dose 62.5 (nM)): 0%; Percentage inhibition, Mean (HIV-1/Ba-L; Day 14, dose 125 (nM)): 0%; Percentage inhibition, Mean (HIV-1/Ba-L; Day 14, dose 250 (nM)): 0%; Percentage inhibition, Mean (HIV-1/Ba-L; Day 14, dose 500 (nM)): 0%; Percentage inhibition, Mean (HIV-1/Ba-L; Day 14, dose 1000 (nM)): 0%; Percentage inhibition, Mean (HIV-1/Ba-L; Day 14, dose 2000 (nM)): 44%; Percentage inhibition, Mean (HIV-1/Ba-L; Day 21, dose 62.5 (nM)): 0%; Percentage inhibition, Mean (HIV-1/Ba-L; Day 21, dose 125 (nM)): 0%; Percentage inhibition, Mean (HIV-1/Ba-L; Day 21, dose 250 (nM)): 0%; Percentage inhibition, Mean (HIV-1/Ba-L; Day 21, dose 500 (nM)): 0%; Percentage inhibition, Mean (HIV-1/Ba-L; Day 21, dose 1000 (nM)): 0%; Percentage inhibition, Mean (HIV-1/Ba-L; Day 21, dose 2000 (nM)): 18%; interaction with the NES signal of Rev (LexNES (NES of Rev)): interacts with Rev NES; inhibition of the function of Rev (CAT from pDM128) (Rev): effective inhibitors of the function of Rev; effect on Rev/RRE association (gel retardation) (Rev/RRE association): did not inhibit this association
